Test results taken from US20190024087.

Molecular target: T1, GDF11 (mature human) (Homo sapiens) (UniProt O95390)
T1 sequence: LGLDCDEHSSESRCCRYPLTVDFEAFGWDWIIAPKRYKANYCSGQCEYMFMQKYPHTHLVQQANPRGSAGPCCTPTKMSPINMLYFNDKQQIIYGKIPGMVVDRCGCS
Test: filter
Conditions: NapdU at all P (n) positions; 0.1 uM Z-block

| Sequence | Kd [nM] |
| --- | --- |
| CCCTGCGCCTTCGGACTTGATTTAAGTTTAGCCGCTTGCTCACATCACAA [12060-28_38] | 1.1 |
| CCCTGCGCCTTCGGACTTGCTTTAAGTTTAGCCGCTCGCTCACATCACAA [12060-204_3] | 0.94 |
| CCCTGCGCCTTCGGACTTGCTTTAAGTTTAGCCGCTTGCTCACAACACAA [12060-300_3] | 0.99 |
| CCCTGCGCCTTCGGACTTGCTTTAAGTTTAGCCGCTTGCTCACGTCACAA [12060-130_3] | 0.61 |
| CCCTGCGCCTTCGGACTTGCTTTAAGTTTAGCCGCTTGCTTACATCACAA [12060-116_3] | 1.14 |
| CCCTGCGCCTTCGGACTTGCTTTAAGTTTAGCCGCTTGTTCACATCACAA [12060-4_3] | 0.9 |
| CCCTGCGCCTTCGGACTTGCTTTACGTTTAGCCGCTTGCTCACATCACAA [12060-238_3] | 3.4 |
| CCCTGCGCCTTCGGACTTGCTTTAGGTTTAGCCGCTTGCTCACATCACAA [12060-28_40] | 1.4 |
| CCCTGCGCCTTCGGACTTGGTTTAAGTTTAGCCGCTTGCTCACATCACAA [12060-28_39] | 1.2 |
| CCCTGGTTGACAAGGTACTGGACTTGATTTACGTTTAGCCTCAAGCACAA [12058-386_3] | 6.7 |
| CCCTGTGCCTTCGGACTTGCTTTAAGTTTAGCCGCTTGCTCACATCACAA [12060-32_3] | 1.45 |
| CTGTGAACTTGATTTAAGTTTAGGCACATACACCACTCCGGACGA [16139-198_3] | 0.62 |
| CTGTGACCTTCACCCGTGACTTGGTTTACGTTTAGCGGGTAGGTCACAA [16139-178_3] | 1.08 |
| CTGTGACTAATGTGACCGGAGACTTGCTTTACGTTTAGCGACCTGCACAA [16139-12_3] | 1.7 |
| CTGTGAGTGTACCTCGCGCTTGATTTACGTTTAGGCGAGGCAGGCCACAA [16139-30_3] | 0.92 |
| CTGTGCGTACTGACTTGATTTACGTTTTAGCGATGCATGCTTGAGCCACAA [16139-122_3] | 2.23 |
| CTGTGCTAAGACTGCGGACTTGATTTAGGTTTAGCCGCAAGAAGTCACAA [16139-37_3] | 1.21 |
| CTGTGGACTGAGTTGGATGGGACTTGATTTAAGTTTAGCCCGCAACACAA [16139-3_3] | 1.58 |
| CTGTGGTTAACGACGACTTGATTTACGTTTAGCGGCACCTTACACCACAA [16139-19_3] | 1.7 |

Same assay, conditions: NapdU at all P (n) positions; 0.1 uM Z-block; Table 5 gives 4.17 nM, p194 1.74 nM with 1 uM Z-block

| Sequence | Kd [nM] |
| --- | --- |
| CCCTGCGCCTTCGGACTTGCTTTAAGTTTAGCCGCTTGCTCACATCACAA [12060-28_3] | 1.7 |

Same assay, conditions: NapdU at all P (n) positions; 0.1 uM Z-block; Table 5 gives 6.52 nM

| Sequence | Kd [nM] |
| --- | --- |
| CCCTGTGAGACTTGATTTACGTTTAGCTGCTAACATGGGGAACCACACAA [12060-16_3] | 6.5 |
